Measured values: US20190064149A1, “CANCER EXAMINATION METHOD AND EXAMINATION KIT” (THE UNIVERSITY OF TOKYO, priority 2013, published 2019)
Entries after “also recorded” stand apart in the source; their conditions may differ.

Key:
Type in all cases: cell-based, human
[1] = system: A431 cells; assay: Cell growth assay, three-dimensional collagen gel culture and spheroid formation; settings: three-dimensional culture in collagen gel and anchorage-independent spheroid formation
Description: Collagen I gel (3 mg/ml, Nitta Gelatin) extracted in acetic acid, a neutralization buffer (50 mM NaOH, 260 mM NaHCO3, 200 mM HEPES), and each of the two types of cells were mixed and the resulting mixture was seeded to satisfy 2.5×10^4/250 μl/48 well plate. After completion of the polymerization of the collagen gel, they were cultured for 7 days in 400 μl/well of a DMEM/1% FCS culture solution. After culturing, the collagen gel was dissolved with 0.1% collagenase. The cells were treated with trypsin to dissociate them into single cells and the number of the cells was counted using a Coulter counter.
The two types of the cells were each detached with trypsin from one another and the number of the cells was counted by a hemocytometer. They were seeded in a low adhesion plate (PrimeSurface (registered trademark), Sumitomo Bakelite) of each cell protein (100 cells/100 μl/96 well plate) and cultured for 7 days in a DMEM/1% FCS culture solution. The number of spheroid formation cells was obtained from their volume (½×long diameter×(short diameter)^2).

[2] = system: A431 cells; assay: Migration activity of EGF-stimulated cells in a transwell chamber; settings: EGF-stimulated MT1-MMP knockdown cells
Excerpt: No RhoG activity was detected from the cells not treated with EGF (A). […] Similar results were found in the SCC61 cells (C).

[3] = system: RhoG; assay: RhoG activity pull-down with ELMO2/GST beads in MT1-MMP knockdown A431 cells; settings: MT1-MMP knockdown A431 cells after EGF stimulation
Excerpt: By using A431 cells whose MT1-MMP expression was knocked down by siRNA, an influence of Ephrin-A1-dependent EphA2 on an RhoG signaling downstream of the EGF receptor was studied.
A fusion protein of ELMO2 and GST, each serving as an effector of RhoG, was solid phased on glutathione beads and the RhoG activity in a cell suspension solubilized with RIPA was detected by pull-down using ELMO2/GST beads as a bait. Co-precipitated RhoG was detected using an anti-RhoG polyclonal antibody (Santa Cruz) and the RhoG activity was quantified by densitometry with Image J. An expression vector of ELMO2 was kindly given by Chihiro Sasakawa, professor of Division of Bacterial Infection, Medical Institute of Science, The University of Tokyo.

B1: Ephrin-A1: typical ligand of EphA2 (protein)
chain: DRHTVFWNSSNPKFRNEDYTIHVQLNDYVDIICPHYEDHSVADAAMEQYILYLVEHEEYQLCQPQSKDQVRWQCNRPSAKHGPEKLSEKFQRFTPFTLGKEFKEGHSYYYISKPIHQHEDRCLRLKVTVSGKITHSPQAHDNPQEKRLAADDPEVRVLHSIGHS
Q: B1 was tested. Which “growth of MT1-MMP knockdown cells” value [1] did it give?
A: significantly suppressed

Q: What about the cell migration [2] of the same molecule?
A: significantly suppressed

Q: What about the RhoG activity [3] of the same molecule?
A: significant decrease; also recorded: significantly reduced
